Measurements taken from patent publication US8859237B2, “Diguanylate cyclase method of producing the same and its use in the manufacture of cyclic-di-GMP and analogues thereof” (priority 2009, dated 2014).
“Also recorded” adds a separate entry of the source.

Columns and labels:
[1] = system: human colon carcinoma cells; details: basal and growth factor-induced; cited from earlier work
Staphylococcus aureus = details: exogenous c-di-GMP; incl. methicillin-resistant strains; cited from earlier work
S. aureus = details: murine mastitis infection; cited from earlier work
[2] = Size-exclusion chromatography, oligomeric state in solution; type: physicochemical, Thermotoga maritima; details: Superdex 75, 4° C., FIG. 3
Protocol: Gel filtration was performed at 4° C. using the AKTA FPLC system equipped with a Superdex 75 HR 16/60 column (Amersham Biosciences). The buffer used for gel filtration is comprised of 50 mM Tris-Cl (pH 8.0), 300 mM NaCl, 5% Glycerol, 1 mM DTT. Fractions containing the recombinant protein were concentrated using Amicon concentrator (Millipore) to a final concentration of ca. 5 mg/ml as measured using Bradford assay. Concentrated proteins were stored in −80° C. degree after flash-freeze using liquid nitrogen. Mutant proteins were expressed, purified and stored following the same procedure. The molecular weight and oligomeric state of the protein was estimated based on the standard curve generated by using the standard proteins that include albumin, ovalbumin, chemotrypsinogen, RNase A. The final yield of the recombinant protein was 12-15 mg per liter culture for the wild type the mutant enzyme.

[3] = Diguanylate cyclase (DGC) activity assay and steady-state kinetic measurement (HPLC, GTP to c-di-GMP); type: biochemical, Thermotoga maritima
Protocol: Enzyme assays were conducted to determine the optimal salt concentration of the DGC reaction, with the buffer that contains 50 mM Tris-HCl (pH 8.0), 20 mM MgCl2, 100 μM GTP, 10 μM Enzyme, and 0-500 mM NaCl. Enzyme assays were conducted to determine the optimal pH concentration of the DGC reaction, with the buffer that contains 50 mM Tris-HCl (pH 7.0-9.0), 250 mM NaCl, 20 mM MgCl2, 100 μM GTP, 10 μM Enzyme. Reaction mixtures were incubated in a waterbath at 55° C. for 15 minutes. After heating at 95° C. for 10 min and centrifugation at 14,000 rpm for 5 min to remove protein precipitate, the supernatant was filtered before loading onto the Eclipse XDB-C18 (4.6×150 mm) column for monitoring the turnover from GTP to c-di-GMP using an Agilent LC1200 system (Mobile phase: 20 mM Triethylammonium bicarbonate (pH 7.0, pH adjusted using acetic acid), 9% Methanol, Flow rate: 1 mL/min). For thermostability analysis, the mutant protein was incubated at 45, 55 and 65° C., aliquots of protein solution were taken out at different time points to add into the reaction mixture that contains 50 mM Tris-Cl (pH 7.5), 250 mM NaCl, 20 mM MgCl2 and 100 μM GTP. The reaction was allowed to last for 10 min before being stopped and analyzed for GTP turnover by using HPLC. For product yield and steady state kinetic measurement, the standard reaction mixture include 50 mM Tris-Cl (pH 8), 20 mM MgCl2, 300 mM NaCl, 1 μM Enzyme, 5-800 μM GTP. Reactions were incubated at 55° C. for 1-60 minutes to obtain linear range of progress. For steady kinetics, data was fitted using GraphPad (Prism) to obtain the kinetic parameters.

[4] = c-di-GMP binding at the I-site of tDGC (absorption spectrum 256 nm peak, HPLC of denatured protein); set-up: species or system Thermotoga maritima; details: purified protein, FIG. 1
Protocol: The observation was surprising since the synthesis of c-di-GMP from two molecules of GTP requires the DGC protein to function in its dimeric form.
However, despite the improved thermostability, we found the overall production yield was low even at high substrate concentration with prolonged incubation.

| Molecule | effect on cell proliferation [1] | effect on in vitro cell-cell interactions and biofilm formation (Staphylococcus aureus) | effect on colonization and biofilm formation (S. aureus) | oligomeric form in solution [2] | NaCl concentration at which the enzyme is most efficient ([3]; 0-500 mM NaCl screened, 55° C., FIG. 4) [mM] | GTP concentration above which production yield decreased (substrate inhibition) ([3]; FIG. 2, 55° C.) | pH at which the enzyme is most efficient ([3]; pH 7.0-9.0 screened, 55° C., FIG. 4) | kcat of GTP condensation ([3]; steady-state kinetics, 55° C.) [s⁻¹] | GTP substrate turned over into c-di-GMP ([3]; under the assay conditions) [%] | c-di-GMP binding / association with the protein [4] |
| --- | --- | --- | --- | --- | --- | --- | --- | --- | --- | --- |
| Nc1nc2c(ncn2[C@@H]2O[C@@H]3COP(=O)(O)O[C@H]4[C@@H](O)[C@H](n5cnc6c(=O)[nH]c(N)nc65)O[C@@H]4COP(=O)(O)O[C@H]3[C@H]2O)c(=O)[nH]1 [c-di-GMP, Bis-(3′-5′)-cyclic dimeric guanosine monophosphate] | inhibiting basal and growth factor-induced proliferation | reduce in vitro cell-cell interactions and biofilm formation | inhibit colonization and biofilm formation |  |  |  |  |  |  |  |
| R158A: tDGC diguanylate cyclase domain with I-site arginine 158 replaced by alanine (protein, listed as Thermotoga maritima, DOMAIN (24)..(181) example of GGDEF domain, tDGC diguanylate cyclase domain with I-site arginine 158 replaced by alanine) MGSSHHHHHHSSGLVPRGSHMKELEYMAYHDPLTGLPNRRYFFELGNRYLDLAKREGKKVFVLFVDLAGFKAINDTYGHLSGDEVLKTVSKRILDRVARSDVVARYGGDEFTILLYDMKEEYLKSLLERILSTFREPVRVENKHLSVTPNIGVARFPEDGENLEELLKVADMRMYKAKEMKVPYFSLS |  |  |  | monomer | 250 to 300 | ca. 0.8 mM | 7.5 | 0.0433 | ~100 | c-di-GMP is no longer associated with the protein; also recorded: abolished the c-di-GMP binding capability |
| R158Q: tDGC diguanylate cyclase domain with I-site arginine 158 replaced by glutamine (protein, listed as Thermotoga maritima, DOMAIN (24)..(181) example of GGDEF domain, tDGC diguanylate cyclase domain with I-site arginine 158 replaced by glutamine) MGSSHHHHHHSSGLVPRGSHMKELEYMAYHDPLTGLPNRRYFFELGNRYLDLAKREGKKVFVLFVDLAGFKAINDTYGHLSGDEVLKTVSKRILDRVQRSDVVARYGGDEFTILLYDMKEEYLKSLLERILSTFREPVRVENKHLSVTPNIGVARFPEDGENLEELLKVADMRMYKAKEMKVPYFSLS |  |  |  |  |  |  |  |  |  | abolished the c-di-GMP binding capability |
